Measurements: article PMC4877382

What was measured:
H-NS (Escherichia coli) = assay: EMSA; details: EMSA: 10 mM Tris-HCl pH 8, 10 mM MgCl2, 100 mM NaCl, 10 mM KCl, 1 mM spermidine, 0.5 mM DTT, 5% glycerol, 0.08 mg/ml BSA, 50 ng poly dI-dC, 25 C, 15 min …
FIS (Escherichia coli) = assay: EMSA; details: EMSA: 10 mM Tris-HCl pH 8, 10 mM MgCl2, 100 mM NaCl, 10 mM KCl, 1 mM spermidine, 0.5 mM DTT, 5% glycerol, 0.08 mg/ml BSA, 50 ng poly dI-dC, 25 C, 15 min …

Substance: cspA promoter 310 bp fragment
- binding signal (H-NS (Escherichia coli)): 520 nM
- binding signal (FIS (Escherichia coli)): 7 nM
